The values below are quoted from earlier work in article PMC3669279.

Where two headings read alike, the source gives them in different places.

Data set [1] concerns the target protective antigen (PA) (Bacillus anthracis) (UniProt P13423).
For data set [2] the target is unchanged. The source holds these as a separate data set.

For orientation: Kd means the constant that tells how readily two partners part at equilibrium. Take edema factor (EF) (from UniProt P40136): the Kd in data set [1] was 1 nM.
Turning to “lethal factor (LF) (from UniProt P15917)”, the Kd in data set [2] was 1 nM.
